Drawing on a protein production outcome set (Wang et al. 2014), this text covers protein production for 23 sequences.

The data set can be described thus: label from the status in PepcDB records.

For the sequence “MERLTSPPRLMIVSDLDETMVDHHKDPENLALLRFNSLWEDAYRHDSLLVFSTGRAQTMYKKLRKEKPLLTPDVIITSVGTEIAYGNSMVPDDNWVEILNKKWDRGIVQEETSKFPELTLQGETEQRPHKLSFNIDKSKVKAVTKELSPRLEKRGVDVKFIFSGGNAFDVLAKGGGKGQALAYLLKKLKTEGKLPINTLACGDSGNDTELFTIPNVYGVMVSNAQEELLEWYAENAKDNANIIHASERCAGGITQAIGHFKLGPNLSPRDVSDFLECKADNVNPGHEVVKFFLFYERWRRGEVENCTTYTSSLKASCHPSGVFVHPSGAEKSLRDTIDELGKYYGDKKGKKFRVWTDQVLATDTTPGTWIVKLDKWEQTGDERKCCTTTVKFTSKEGEGFVWEHVQQIWSEETEIKDDSNWII”, the protein production result is recorded as “failed”.

“MERNVTLDFVRGVAILGILLLNISAFGLPKAAYLNPAWYDAITPQDAWTWAFLDLIGQVKFLTLFALLFGAGLQMLLPRGRRWIQSRLTLLVLLGFIHGLLFWDGDILLAYGLVGLGVLLLLGLISDSQTSRAWTPDASAILYEKYWKLHGGVEAISNRADGVGNSLLALGAQYGWQLAGMMLIGAALMRSGWLKGQFSLRHYRRTGFVLVAIGVTINLPAIALQWQLDWAYRWCAFLLQMPRELSAPFQAIGYASLFYGFWPQLSRFKLVLAIACVGRMALTNYLLQTLICTTLFYHLGLFMHFDRLELLAFVIPVWLANILFSVIWLRYFRQGPVEWLWRQLTLRAAGPAISKTSR”: the protein production result was “failed”.

Consider “MERPLESYKKEAAHAAIAYVQDGMVVGLGTGSTARYAVLELARRLREGELKGVVGVPTSRATEELAKREGIPLVDLPPEGVDLAIDGADEIAPGLALIKGMGGALLREKIVERVAKEFIVIADHTKKVPVLGRGPVPVEIVPFGYRATLKAIADLGGEPELRMDGDEFYFTDGGHLIADCRFGPIGDPLGLHRALLEIPGVVETGLFVGMATRALVAGPFGVEELLP”, for which the protein production result was “not failed”.

In the case of “MERQDDPDAIQRLLVPTDLSASALRAFRHAVALARLYDAAIDVLHVIESVPYVALTPTDRLSLGATTLLERRGRRRLRAFLQEGEAAGVQVQSHIMRGAAADQISRFANQGDVDLMVLSAHGSDAEEGPLGPVGTRVLGRVTRPLFLVRASGPSLLGPPDDAA”, the protein production entry is on record as “failed”.

For “MERSEEEIENLWKLQSEVKQRSESVKSIITELEIERGTLKVRALKLKEDSDVLTTWVEMNYLKLTSMDMGRIEEMFEIESEVEGLAGDDAIEDVLRVLEEAAERGELEIGSYLKQVRVLAREQFFLKHLSSFKTQNFHI”, the protein production result is “failed”.

As to “MERVQRLRLTFGKTGEMTLLSHLDLLRLFERAVRRAHLPIAFSGGFHPSPRISTASALPLGVTSYGEIVDLEFYREVDAQTVLEQLRQQLPQEIPLYGCEVVPLSEPAASQALRAATYELLIRTPEPLERETWEQWLETLRATPEILYELTTKSGKTLEHHHHHH”, the protein production result is listed as “failed”.

Regarding “MESEKKIAHEIGGVKNDALRFGLHGVKSNIIGSHPLESSYESEKKSKEALKRTVIAHAYGTALPLKMDMDRQILSRFQRPPGPIPSSMLGLEVYTGAVDDFGFEDYLNDPRDSETFKPVDFHHGMEVRLGISKGPIYPSFM”, the protein production result is “failed”.

In the case of “MESFNTFVRQYNDQHAEAIAKGELEALAESSSAFIEKASGIKSRFVMNKEGILDPQRMVPYLPERSNDEWSILCEMAVAAAREALQRAGRSAADIDGVIVACSNLQRAYPAIAVEVQAALGIQGYGYDMNVACSSATFGIQAATTAIQTGQARAILMVNPEICTGHLNFRDRDSHFIFGDACTAVIVERADLAVSKHQFDIVSTRLLTQFSNNIRNNFGFLNRADESGIGKRDKLFVQEGRKVFKDVCPMVAELIGEHLAANEIQVAEVKRFWLHQANLNMNLLITRKLLGRDAEAHEAPVILDSYANTSSAGSVIALHKHQDDLPSGAIGVLSSFGAGYSIGSVILRKH”, the protein production result is “failed”.

With “MESGKREQVELMFNNISPKYDLLNRVLSLGIDKIWRKQALNLLKQDKPAHILDVATGTADLAIEAATRLKPTSVVGIDIAEDMLQIGRGKIAKKNLDKIIRLEKGDSEKINFPDNTFDAVIVSFGVRNFEHLEIGLAEIHRVLKPAGSIMVLEFSKPQNAPFKQVYQFYFKNILPTVGKLISKDSAAYTYLPDSVNAFPDGKAFCSILEKTGFTIKHYKPYTFGVCTAYVGKLEHHHHHH”, the protein production result was “failed”.

Turning to “MESSFSFGVILAVLASLIIATNTLVAVAVLLLIHKNDGVSLCFTLNLAVADTLIGVAISGLLTDQLSSPSRPTQKTLCSLRMAFVTSSAAASVLTVMLITFDRYLAIKQPFRYLKIMSGFVAGACIAGLWLVSYLIGFLPLGIPMFQQTAYKGQCSFFAVFHPHFVLTLSCVGFFPAMLLFVFFYCDMLKIASMHSQQIRKMEHAGAMAGGYRSPRTPSDFKALRTVSVLIGSFALSWTPFLITGIVQVACQECHLYLVLERYLWLLGVGNSLLNPLIYAYWQKEVRLQLYHMALGVKKVLTSFLLFLSARNCGPERPRESSCHIVTISSSEFDG”, the protein production result is on record as “failed”.

For the sequence “MESWLFLLLIALIAFVAKNQSLLIASVVVLALKALPNSAKIMSWLSDKGINLGVTIISITILVPIATGQIGLKDLIQSFKTPMGWLGILCGILVAVLSSKGVGLINQSPEITVALVFGTILGVVFLKGIAAGPIIASGMMYVIITTFQAFQH”, the protein production result is “failed”.

For “MESYSQRQDHELQALEAIYGSDFQDLRPDARGRVREPPEINLVLYPQGLAGEEVYVQVELRVKCPPTYPDVVPEIDLKNAKGLSNESVNLLKSHLEELAKKQCGEVMIFELAHHVQSFLSEHNK”, the protein production entry is “not failed”.

As for “METDPDYSMVLLTENFPPYNMAINGKNFAQEDNIDGIAVDIVREMFKRAGIKYSLTLRFPWDRIYKLALEKPGYGVFVTARLAEREDKFKWVGPIGPDDWVLLAKGDSPITLGSLDEAKKYRIGAYKGDAIAEFLGKNGFEADLEHHHHHH”, the protein production entry is reported as “failed”.

In the case of “METKGEPYSEPCEFFNSILTGSVSRKMRLPRMGIRNFIGTSRLHFAKRAFHAQAAVDEDSRYGALLSIKEYPPFTGPGMLDGLLQVNHEFILTQSFTLADKPIAQERITRLQRQIRASDEAGTSVESDINFALDSMLNQEAVFGFHHFSLLCISRDLEGLSRCVSELGACLTDMNINWLREDLNLEAAFWAQLPGNHSYIARKAMLSSSNFSGLSSMHNFASGQAERTHWGLPITILETTSQTPYWFNFHRRDIGHFTVTGPTGSGKTVGLSFLLAQAMRVSPTPRAVFFDKDRGAEIFVRAIGGSYEILSPGTPTGFNPLQLENTGPNREFLQRLLKAMLGGRDRRDFTQEDEDIIERAVVRLMEEPAQQRNLTNLGNLLMGRARADANDLYSRLRPWTEGEKAWLFNAPHDVLSFSGRTVFGFDMTSILGNEELRTPALMYLYHRLDELLDGNPVMFFMDEGWQLLLDETFSAFIVDKMKTIRKLNGIVGFGTQSAADIAKSKVSHTLIEQSSTNIHFPNPRADEESYIKRFGLTVKEYNFIKNTPPEKRTFLIKHGNDSVIARLDLSSMPDLVKVLSGRKETIEECAALREQYGDEPENWLAKFCGWENAELEHHHHHH”, the protein production result is reported as “not failed”.

As for “METLLHAKLLLSAEVESLKSGSFDQTYVKKAEHIISGESYQLVQQFVDKFKGKISISGEISTSSVIAALNDFLNVEVFKMGQENEMLFLAIALLQTFIQNNYTGPAARLKAISGLFGKTGIEIGAVNTALSRSLAIMGQPAYEFMDDPLYLVLSLLLLERITGQKSLFDVTPDQEIPLPIISAESTPGLLAVAYWWWARALLTQLSLIPEPSGFQASVASAIYQSADLAYAITKELPESIHEDFKRELCAMYYLENVKCSLAINTEHLCLPSLTRAKKITNFEFVMTGARATRTKYQQKAHAGLIILAKSFTFQNFALRTTSATPETFALESDLLLEKPHFESIADEPLDEQIYSKRQKVDLNEGYEEDKLLPLALRQENIPKLLLDLNPNDQPTLSDYDNIQLLLRLYTIKNTTPAKDPLVEEELTALLSRILYQNGDKNWSIFARSLWERSIIETTKAKTIERGLLQMQSLVEELDLKIKSKLVPSSSEINVASRLSYIHQLPFIPRWQLDATLAEKYMSLGILKSAVEIYERLGMACETALCYAAVGDEKKAEEILLQRINENDSDARAYSILGDIKQDPSLWEKSWEIGKYVNAKNSLAKYYFNPPPKSGAQPNYSATLKHLNDSLRQYPLSFETWYFYGCVGLQCGKMQIAAEAFTRCVSLDPYHALSWSNLSAAYTKMDKLKEAYSCLKRAISCDAQKNWKIWENYMLVAVKLNEWEDVLTACKQLVSIRRDKSGEGSIDLPIIEKLVELLVTSEYPEEPQQLSYFQKSCTEFICNTLPQVITTSARCWRLVARVELWRKRPWAALECHEKAYRAISHNPDLEVEEKVWNDTVDACEDLVAAYESLGEMEGKYGPGSLVCKDWKYKCRSTIKALMSKGKGRWDDSPGWDRLVEARSQI”, the protein production entry is on record as “failed”.

As for “METLSDVFATFSQRGDTTAFVHRTGVRRYVFTYLDLHALSLRMNRWLADQGVGEGDRVVLWGPNSPWWAVAFWGIVTRGAVAVPVDFMSGAERAEIIAGLTDAKLVIQSRDKLEHHHHHH”, the protein production entry is given as “not failed”.

As for “METNRPSPDALLVNLQEEADSSVGKLKIYFGFAAGVGKTYAMLSDAKDQLAAGVDVVAGYIEPHAREETLRMLEGIPIIPPKAINHKNIALKEFDLDEALKRKPELILVDELAHTNASGVRNKKRFQDVEELLQAGIDVYTTVNVQHIESLNDIVEGITKVAVRETIPDYVFDEADRVKLIDIEPDELLKRLEQGKIYQPARAKTAMQNFFTRENLKLLREIAMRKAADRI”, the protein production entry is given as “not failed”.

For the sequence “METPNSTGGTPPTMRVSVVLCTHTMERYDDCRAAAESVLAQTYDDVELVLVSDGNRDVYKQYQSDFGNRDDVLTHCNDANVGLLESRNNGAEVATGDVVAFIDDDAIADEEWVAALVDAYEQQDALAVGGRMTPAWVAGKPSFLPAEFYWLIGVTHRGFGPNGDPDEPGVVRNTFGSNISFDRDVFLELGGFDDDIGGRQGEKNLQGGETELCARLRTEYDEGVYYTPEALVAHKIFDYRTDPGWLLDRAFWQGYSKRGMEVFVPESTGEESDFLSDLLFRFAPERIWGLVRAPSVAGVLQFVFLFALTAFVGFGYLYGMTVWG”, the protein production result is listed as “failed”.

As for “METRAPFVIVGAFVLAAIFAVFGFVFWLHNTSGVGARTSYHVQFRDPVPGLLVGAAVLFNGIRVGEVTALALAPDDPRRVDATIAVAPSTPVRPDTKVGLDFQGLTGVPVVALEGGKQLSGSAIATTLVAEPGAGMSMTQAAREALRKVDSVLGENSGPLKDTIANFKTFSEWLAGKTEKLDGILGGVERMTGANEPVVKKVVYDLSAATGFPPPSPPLKGQLTIPESNTVVLFDSQKMLLAPGLEVPAFAGAQWSDSLPKMLQEKLIQSFENYDIAHAPMRPNDAVQPDYQLLTDIRSFQVIGEGDALRAEIAFSAKIIDKDGKLVAARLFQQASPLDKPEPAAAVSAFDKSFDTIAKELVPWAAQALASGRAEVEPAATTSRPITAPRSSGTTKGR”, the protein production result is “failed”.

As for “METSRVEEWFERGVEALGHDQVYLARSCFEHVARVNQHPAASSYLALCQAKTRGKFSDAIALARESIAREPHNPLLYQNLGRIYQLAGMRMDAVEVLREGVRRGAGEEAVAELNRIGTRKQPPFRRLHRNHPLNKYVGKLLARLRLR”, the protein production result is “failed”.

Take “METTHYSIAQHFSSGDFPAVYACFNDIIEWNIIGNQVVKGKADVIDFCNKMLPEMKGAVLTNDNVIQNENQIVIEGKCRYFDAEGKEAFVSYCDIYRFENDTIKTITSYCI”: the protein production result is given as “not failed”.

Regarding “MEVHAADQYLVAPGEADLLEVHARLAGTGLFPPFPPVELPGGVGGLVARGGFAQTFFFPAEVLGLTFRTPKGRRVRAGGVVVKNVQGYDLVRLFVGSFGLLGRAEEVVLRLRPGRAQAFLRRPFSGSFPRLVPTPRFLFALEDEEGPWLYAYHFGHPKEVERFREAFGGEEARPLDLRPRFPRGLGLGEGPLWDLRFRYQDGGASPPPPPAFLRLARVL”, the protein production entry is reported as “not failed”.

Turning to “MEVMVFTPKGEIKRLPQGATALDFAYSLHSDLGDHCIGAKVNHKLVPLSYVLNSGDQVEVLSSKSQQPTELEHHHHHH”, the protein production entry is given as “not failed”.
